Laboratory results taken from the supplement of paper PMC10567573.

B1: CHCHD3 (parent)
chain: YSGAYGASVSDEELKRRVAEELAL

Variants of: B1
Assay: protein stability index of a GFP-peptide fusion (GPS, HEK-293T) (PSI 1-6); higher = more stable
Conditions: c terminus: a fixed tail appended
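Also: lentivirally expressed fusions sorted by FACS into six bins by GFP to DsRed ratio, PSI derived from sequencing read proportions per bin multiplied by bin number.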

Protein stability index: each site, then its substitutions
S8: I 2.08 | F 2 | V 1.78 | L 1.42 | K 3.2 | Q 3.02 | E 3.77 | G 3.1 | M 3.52 | D 4.18 | T 2.01 | P 2.07 | H 2.98 | C 2.04 | R 2.88 | N 3.22 | Y 2.07 | W 4.28
Y5: K 4.14 | P 4.88 | W 2.4 | T 5.01 | G 4.92 | L 4.86 | D 5.3 | F 1.33 | S 4.99 | V 4.95 | M 3.73 | H 4.02 | E 5.32 | R 4.59 | Q 5.28 | I 4.44 | N 4.55
E12: P 3.73 | A 2.29 | W 3.11 | C 2.2 | I 2.92 | K 2.53 | Q 2.09 | V 2.37 | N 2.4 | T 2.71 | F 2.09 | G 1.82 | L 2.17 | S 2.09 | M 2.39 | D 2.99 | Y 3.02 | H 2.24 | R 2.59
D11: P 1.7 | V 3.23 | F 2.27 | G 2.01 | M 3.01 | E 1.55 | H 2.08 | Q 2.34 | I 2.29 | C 2.39 | W 2.31 | T 2.24 | S 1.86 | N 2.37 | L 2.57 | K 2.49 | A 2.79 | R 2.24
L14: R 2.25 | P 2.24 | T 3.12 | A 1.78 | W 2.34 | N 2.47 | E 3.48 | I 2.41 | Y 3.56 | D 3.3 | H 2.79 | K 2.94 | F 2.53 | V 2.63 | M 2.19 | G 3.46 | C 2.77 | S 2.31
V9: A 3.3 | E 4.28 | H 2.77 | Y 1.94 | T 2.19 | W 2.71 | P 3.13 | N 3.35 | G 3.06 | K 2.57 | R 2.19 | S 3.07 | Q 3.18 | I 2.95 | M 2.7 | F 2.67
R16: W 2.54 | S 1.95 | L 2.75 | V 2.17 | F 2.3 | C 1.92 | E 2.46 | P 2.55 | D 3.66 | M 2.74 | Q 2.64 | I 2.11 | K 2.65 | G 2.92 | H 2.45 | A 2.34 | N 2.65 | T 3.04 | Y 2.19
R17: H 2.4 | E 3.17 | D 2.54 | G 2.36 | S 2.52 | Y 2.33 | K 2.31 | V 2.63 | A 2.57 | P 2.64 | I 2.4 | N 2.61 | F 2.12 | W 2.38 | Q 2.77 | T 2.53 | L 2.76 | M 1.94 | C 2.06
E20: G 1.58 | N 2.15 | Y 2.27 | F 1.99 | K 2.9 | W 1.85 | S 3.03 | Q 2.68 | H 2.59 | C 2.48 | R 2.49 | P 2.49 | V 1.57 | M 2.16 | D 3.01 | L 2.22 | A 2.19 | T 2.26 | I 2.4
E21: G 3.32 | V 2.19 | R 2.89 | Y 2.45 | Q 3.05 | H 2.44 | C 3.9 | K 2.88 | T 2.33 | D 2.45 | N 2.9 | P 3.47 | L 2.87 | S 3.57 | I 2.12 | W 2.62 | F 2.44 | A 2.94 | M 3.14
A23: D 2.76 | E 2.86 | C 3.08
G6: E 4.05 | R 2.42 | M 2.4 | P 2.48 | F 2.09 | I 2.12 | W 1.64 | Y 1.9 | L 2.06 | T 2.11 | S 2.13 | Q 2.81 | H 2.3 | N 3.36 | V 2.48 | C 2.22 | K 2.06 | A 1.84 | D 4.67
A7: R 2.77 | L 2.42 | H 2.98 | S 3.48 | Y 2.61 | T 2.99 | P 2.94 | V 2.56 | D 4.27 | E 4.3 | G 3.43 | F 2.58 | Q 3.04 | I 2.71 | M 2.94 | C 1.72 | K 2.38 | N 3.61 | W 1.39
A19: I 2.49 | D 2.84 | Y 2.27 | S 2.05 | L 3.05 | C 2.67 | T 1.94 | V 3.43 | K 2.47 | F 2.54 | W 2.69 | Q 2.56 | G 3.1 | E 3.04 | H 3.24 | R 2.95 | P 3.04 | M 3.43 | N 3.53
S10: P 2.6 | E 3.58 | L 2.8 | M 2.86 | H 2.98 | R 2.66 | T 2.71 | D 3.35 | F 2.64 | I 2.69 | G 2.51 | W 1.89 | V 2.92 | Q 2.72 | N 2.4 | Y 2.14 | K 2.46
E13: H 2.67 | N 2.44 | L 2.85 | P 2.47 | M 1.51 | C 2.33 | W 2.56 | D 2.9 | I 2.2 | A 2.61 | F 2.49 | R 2.26 | Y 1.76 | G 2.18 | K 3.04 | Q 2.3 | S 2.26 | T 2.66 | V 2.38
L22: N 3.21 | V 3.58 | Q 2.77 | D 2.75 | H 2.05 | P 2.47 | W 1.89 | F 1.59 | I 2.7 | S 2.4 | A 2.5 | G 2.33 | M 2.87 | Y 1.94 | E 2.7 | K 2.19 | R 3.32 | C 2.57 | T 3.26
K15: S 3.47 | M 2.61 | E 3.33 | N 2.19 | W 2.04 | D 3.38 | H 2.69 | G 2.58 | I 2.5 | C 3.2 | F 2.11 | V 2.65 | Y 2.72 | R 2.84 | A 2.99 | L 2.52 | P 2.29 | T 2.22 | Q 2.83
V18: D 2.54 | Q 1.72 | M 2.09 | I 2.86 | C 2.76 | K 2.38 | R 2.44 | Y 2.09 | T 2.39 | L 2.93 | N 2.73 | H 2.75 | A 2.42 | E 2.59 | W 2.35 | S 2.42 | P 2.58 | F 2.64
